The values below come from paper doi:10.1101/2025.04.25.650734 (bioRxiv, 2025).

Assay in all cases: single-particle TIRF colocalisation with photobleaching step counting
The target of series [1] is mTFP-K-K, dimer of linked wild type Kir2.1 subunits.
Series [2] addresses mTFP-K-K-K-K, linked tetramer of wild type Kir2.1 subunits.
The target in series [3] is mTFP-K-Q, dimer of a wild type Kir2.1 subunit linked to a Kir2.1-K49Q subunit.
The target of series [4] is mTFP-K-Q-K-Q tetramer of concatenated Kir2.1 subunits.
Series [5] has as its target mTFP-Q-K-K-Q tetramer of concatenated Kir2.1 subunits.
The target in series [6] is mTFP-Q-K-Q-Q tetramer of concatenated Kir2.1 subunits.
The target in series [7] is tetrameric Kir2.1 construct with three SUMO1 binding sites.
Series [8] deals with the molecule itself.

“mCherry-SUMO1 (from UniProt P63165-1 1-97) (natural protein)”: the stoichiometry N (SUMO1 monomers per channel) in series [1] turned out to be 2; in series [2] it was 2; in series [3], 2; in series [4] it was 2; in series [5], 1; in series [6], 1. For the same molecule, the stoichiometry N (SUMO1 monomers per channel) in series [7] turned out to be 2.

By stoichiometry N is commonly meant the number of molecules, sites or subunits per partner or assembly. Molecule “mTFP-K-K, dimer of linked wild type Kir2.1 subunits” gave a stoichiometry N in series [1] of 2.

In series [3], “mTFP-K-Q, dimer of a wild type Kir2.1 subunit linked to a Kir2.1-K49Q subunit” came in with a stoichiometry N of 2.

B1: mTFP1-tagged Kir2.1 (natural protein)
chain: MGSVRTNRYSIVSSEEDGMKLATMAVANGFGNGKSKVHTRQQCRSRFVKKDGHCNVQFINVGEKGQRYLADIFTTCVDIRWRWMLVIFCLAFVLSWLFFGCVFWLIALLHGDLDASKESKACVSEVNSFTAAFLFSIETQTTIGYGFRCVTDECPIAVFMVVFQSIVGCIIDAFIIGAVMAKMAKPKKRNETLVFSHNAVIAMRDGKLCLMWRVGNLRKSHLVEAHVRAQLLKSRITSEGEYIPLDQIDINVGFDSGIDRIFLVSPITIVHEIDEDSPLYDLSKQDIDNADFEIVVILEGMVEATAMTTQCRSSYLANEILWGHRYEPVLFEEKHCYKVDYSRFHKTYEVPNTPLCSARDLAEKKYILSNANSFCYENEVALTSKEEEDSENGVPESTSTDSPPGIDLHNQASVPLEPRPLRRESEI
On to B1, for which the “stoichiometry N” value in series [8] was determined as 4.
